Measured values: patent US8715959B2, “Substitution mutant receptors and their use in a nuclear receptor-based inducible gene expression system” (priority 2001, dated 2014)

Tested on: CfEcR-DEF
Experiment: GAL4/mutant CfEcR-DEF + VP16/LmUSP-EF GAL4-driven luciferase reporter transactivation in NIH3T3 cells
Type: cell-based, Choristoneura fumiferana
Conditions: NIH3T3 cells, relative to Gal4/wild-type CfEcR-DEF switch activity; for Fold increase over WT, 10 nM GS™-E: 10 nM GS™-E non-steroidal ligand; for Fold increase over WT, 10 nM PonA: 10 nM PonA steroidal ligand; for Fold increase over WT, 2.5 μM GS™-E: 2.5 μM GS™-E non-steroidal ligand; for Fold increase over WT, 2.5 μM PonA: 2.5 μM PonA steroidal ligand
Experimental: DNAs corresponding to the various switch constructs outlined in Example 1, specifically switches 1.1-1.13, were transfected into mouse NIH3T3 cells (ATCC) or L57 cells (Dr. Peter Cherbas; Indiana University) as follows. Standard methods for culture and maintenance of the cells were followed. […] Superfect™ (Qiagen Inc.) was used for 3T3 cells and Lipofectamine™ (LifeTechnologies) was used for L57 cells as the transfection reagents. For 12-well plates, 4 μl of Superfect™ or Lipofectamine™ was mixed with 100 μl of growth medium. One μg of reporter construct and 0.25 μg of each receptor construct of the receptor pair to be analyzed were added to the transfection mix. […] The cells were harvested and reporter activity was assayed.
Cells were harvested 40 hours after adding ligands. […] Twenty μl of lysate were assayed.
Briefly, Applicants mutated amino acid residues predicted to be critical for ecdysteroid binding into alanine and created GAL4/mutantCfEcR-DEF cDNA gene expression cassettes as described in Example 1 above using the Quikchange PCR-mediated site-directed mutagenesis kit (Stratagene, La Jolla, Calif.). The mutated and the WT cDNAs were tested in GAL4-driven luciferase reporter assays.
DNAs corresponding to the various switch constructs outlined in Example 1, specifically switches 1.1-1.2, were transfected into mouse NIH3T3 cells (ATCC) as follows. […] Two μl of Superfect™ was mixed with 100 μl of growth medium and 50 ng of either GAL4/wild-type EcR or Gal4/mutant EcR cassette, 50 ng of VP16/LmUSP-EF and 200 ng of pFRLuc were added to the transfection mix. […] The cells were harvested and reporter activity was assayed as described above.

| Molecule | Fold increase over WT, 10 nM GS™-E [fold] | Fold increase over WT, 10 nM PonA [fold] | Fold increase over WT, 2.5 μM GS™-E [fold] | Fold increase over WT, 2.5 μM PonA [fold] |
| --- | --- | --- | --- | --- |
| Y127E/R175E: CfEcR-DEF LBD double mutant, Y127E and R175E (protein, listed as Choristoneura fumiferana) LTANQQFLIARLIWYQDGYEQPSDEDLKRITQTWQQADDENEESDTPFRQITEMTILTVQLIVEFAKGLPGFAKISQPDQITLLKACSSEVMMLRVARRYDAASDSVLFANNQAYTRDNYRKAGMAEVIEDLLHFCRCMYSMALDNIHYALLTAVVIFSDRPGLEQPQLVEEIQEYYLNTLRIYILNQLSGSARSSVIYGKILSILSELRTLGMQNSNMCISLKLKNRKLPPFLEEIWDV | 622.8 | 42.2 | – | – |
| T52V: CfEcR-DEF LBD substitution mutant, Threonine (T) to Valine (V) (protein, listed as Choristoneura fumiferana) LTANQQFLIARLIWYQDGYEQPSDEDLKRITQTWQQADDENEESDTPFRQIVEMTILTVQLIVEFAKGLPGFAKISQPDQITLLKACSSEVMMLRVARRYDAASDSVLFANNQAYTRDNYRKAGMAYVIEDLLHFCRCMYSMALDNIHYALLTAVVIFSDRPGLEQPQLVEEIQRYYLNTLRIYILNQLSGSARSSVIYGKILSILSELRTLGMQNSNMCISLKLKNRKLPPFLEEIWDV | – | – | 17.3 | 35.7 |
| E20A: CfEcR-DEF LBD substitution mutant, Glutamic Acid (E) to Alanine (A) (protein, listed as Choristoneura fumiferana) LTANQQFLIARLIWYQDGYAQPSDEDLKRITQTWQQADDENEESDTPFRQITEMTILTVQLIVEFAKGLPGFAKISQPDQITLLKACSSEVMMLRVARRYDAASDSVLFANNQAYTRDNYRKAGMAYVIEDLLHFCRCMYSMALDNIHYALLTAVVIFSDRPGLEQPQLVEEIQRYYLNTLRIYILNQLSGSARSSVIYGKILSILSELRTLGMQNSNMCISLKLKNRKLPPFLEEIWDV | – | – | 0.9 | 0.35 |
| T52A/V107I/R175E: CfEcR-DEF LBD triple mutant, T52A, V107I and R175E (protein, listed as Choristoneura fumiferana) LTANQQFLIARLIWYQDGYEQPSDEDLKRITQTWQQADDENEESDTPFRQIAEMTILTVQLIVEFAKGLPGFAKISQPDQITLLKACSSEVMMLRVARRYDAASDSILFANNQAYTRDNYRKAGMAYVIEDLLHFCRCMYSMALDNIHYALLTAVVIFSDRPGLEQPQLVEEIQEYYLNTLRIYILNQLSGSARSSVIYGKILSILSELRTLGMQNSNMCISLKLKNRKLPPFLEEIWDV | 2.3 | 20.3 | – | – |
| T52V/V107I/R175E: CfEcR-DEF LBD triple mutant, T52V, V107I and R175E (protein, listed as Choristoneura fumiferana) LTANQQFLIARLIWYQDGYEQPSDEDLKRITQTWQQADDENEESDTPFRQIVEMTILTVQLIVEFAKGLPGFAKISQPDQITLLKACSSEVMMLRVARRYDAASDSILFANNQAYTRDNYRKAGMAYVIEDLLHFCRCMYSMALDNIHYALLTAVVIFSDRPGLEQPQLVEEIQEYYLNTLRIYILNQLSGSARSSVIYGKILSILSELRTLGMQNSNMCISLKLKNRKLPPFLEEIWDV | 62.8 | 136.6 | – | – |
| V107I/Y127E: CfEcR-DEF LBD double mutant, Valine (V) to Isoleucine (I) and Tyrosine (Y) to Glutamine (E) (protein, listed as Choristoneura fumiferana) LTANQQFLIARLIWYQDGYEQPSDEDLKRITQTWQQADDENEESDTPFRQITEMTILTVQLIVEFAKGLPGFAKISQPDQITLLKACSSEVMMLRVARRYDAASDSILFANNQAYTRDNYRKAGMAEVIEDLLHFCRCMYSMALDNIHYALLTAVVIFSDRPGLEQPQLVEEIQRYYLNTLRIYILNQLSGSARSSVIYGKILSILSELRTLGMQNSNMCISLKLKNRKLPPFLEEIWDV | 314.6 | 35.8 | – | – |
| V107I/YL27E/R175E: CfEcR-DEF LBD triple mutant, V107I, Y127E and R175E (protein, listed as Choristoneura fumiferana) LTANQQFLIARLIWYQDGYEQPSDEDLKRITQTWQQADDENEESDTPFRQITEMTILTVQLIVEFAKGLPGFAKISQPDQITLLKACSSEVMMLRVARRYDAASDSILFANNQAYTRDNYRKAGMAEVIEDLLHFCRCMYSMALDNIHYALLTAVVIFSDRPGLEQPQLVEEIQEYYLNTLRIYILNQLSGSARSSVIYGKILSILSELRTLGMQNSNMCISLKLKNRKLPPFLEEIWDV | 124.3 | 122.3 | – | – |
| V96D: CfEcR-DEF LBD substitution mutant, Valine (V) to Aspartic Acid (D) (protein, listed as Choristoneura fumiferana) LTANQQFLIARLIWYQDGYEQPSDEDLKRITQTWQQADDENEESDTPFRQITEMTILTVQLIVEFAKGLPGFAKISQPDQITLLKACSSEVMMLRDARRYDAASDSVLFANNQAYTRDNYRKAGMAYVIEDLLHFCRCMYSMALDNIHYALLTAVVIFSDRPGLEQPQLVEEIQRYYLNTLRIYILNQLSGSARSSVIYGKILSILSELRTLGMQNSNMCISLKLKNRKLPPFLEEIWDV | – | – | 3.07 | 3.1 |
| T52I: CfEcR-DEF LBD substitution mutant, Threonine (T) to Isoleucine (I) (protein, listed as Choristoneura fumiferana) LTANQQFLIARLIWYQDGYEQPSDEDLKRITQTWQQADDENEESDTPFRQIIEMTILTVQLIVEFAKGLPGFAKISQPDQITLLKACSSEVMMLRVARRYDAASDSVLFANNQAYTRDNYRKAGMAYVIEDLLHFCRCMYSMALDNIHYALLTAVVIFSDRPGLEQPQLVEEIQRYYLNTLRIYILNQLSGSARSSVIYGKILSILSELRTLGMQNSNMCISLKLKNRKLPPFLEEIWDV | – | – | 8 | 8 |
| V96A/V107I/R175E: CfEcR-DEF LBD triple mutant, V96A, V107I and R175E (protein, listed as Choristoneura fumiferana) LTANQQFLIARLIWYQDGYEQPSDEDLKRITQTWQQADDENEESDTPFRQITEMTILTVQLIVEFAKGLPGFAKISQPDQITLLKACSSEVMMLRAARRYDAASDSILFANNQAYTRDNYRKAGMAYVIEDLLHFCRCMYSMALDNIHYALLTAVVIFSDRPGLEQPQLVEEIQEYYLNTLRIYILNQLSGSARSSVIYGKILSILSELRTLGMQNSNMCISLKLKNRKLPPFLEEIWDV | 21.1 | 1005.1 | – | – |
| M92A: CfEcR-DEF LBD substitution mutant, Methionine (M) to Alanine (A) (protein, listed as Choristoneura fumiferana) LTANQQFLIARLIWYQDGYEQPSDEDLKRITQTWQQADDENEESDTPFRQITEMTILTVQLIVEFAKGLPGFAKISQPDQITLLKACSSEVAMLRVARRYDAASDSVLFANNQAYTRDNYRKAGMAYVIEDLLHFCRCMYSMALDNIHYALLTAVVIFSDRPGLEQPQLVEEIQRYYLNTLRIYILNQLSGSARSSVIYGKILSILSELRTLGMQNSNMCISLKLKNRKLPPFLEEIWDV | – | – | 0.7 | 0.39 |
